In US20170253670A1 (Hoffmann-La Roche, published 2017):
“And” between values parts separate entries of the source, which are not always exact repeats. Identical values can stand only once.

T1: recombinant human BCMA Fc(kih) (human, UniProt Q02223 4-53, biotin on avi-tag where coupled to SA chip ; biotin on the avi-tag of the Fc-knob chain where coupled to the SA chip (tag not in the letters))
T1 construct: also called huBCMA Fc(kih); huBCMA; not shown: human IgG1 hinge-Fc(knob)-avi fused to the ECD, and the unfused Fc(hole) chain
T1 chain: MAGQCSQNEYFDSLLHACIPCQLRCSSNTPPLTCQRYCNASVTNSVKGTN

T2: MUC1 SEA-avi-His, biotinylated (human, biotin on avi tag)
T2 construct: E. coli derived; also called MUC1 antigen; SEA domain of human MUC1
T2 chain: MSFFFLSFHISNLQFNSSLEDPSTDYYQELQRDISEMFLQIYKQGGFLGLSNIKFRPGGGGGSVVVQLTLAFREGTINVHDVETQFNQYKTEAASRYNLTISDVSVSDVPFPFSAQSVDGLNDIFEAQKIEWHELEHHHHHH

T3: recombinant murine BCMA Fc(kih) (murine, UniProt O88472 2-49, biotinylated at the avi-tag of the Fc knob chain (not in the letters))
T3 construct: also called muBCMA Fc(kih); not shown: human IgG1 hinge-Fc(knob)-avi and the unfused Fc(hole) chain
T3 chain: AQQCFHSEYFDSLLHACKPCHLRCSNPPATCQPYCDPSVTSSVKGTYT

T4: human BCMA on myeloma cells (H929, U266) (human, UniProt Q02223 1-184)
T4 sequence (looked up): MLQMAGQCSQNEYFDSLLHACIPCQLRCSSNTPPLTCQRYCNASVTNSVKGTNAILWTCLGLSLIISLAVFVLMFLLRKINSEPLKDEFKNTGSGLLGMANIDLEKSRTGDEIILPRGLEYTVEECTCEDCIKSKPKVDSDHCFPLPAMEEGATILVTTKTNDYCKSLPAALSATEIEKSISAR


Experiments:
[1] = biological target: T5, human FolR1 on cells (HeLa, SKOV3, HT-29, transfected HEK) (human, UniProt P15328 25-234); assay: flow cytometry on HeLa cells, fluorescently labeled anti-human secondary antibody
T5 construct: whole, on cells
T5 sequence (P15328 25-234): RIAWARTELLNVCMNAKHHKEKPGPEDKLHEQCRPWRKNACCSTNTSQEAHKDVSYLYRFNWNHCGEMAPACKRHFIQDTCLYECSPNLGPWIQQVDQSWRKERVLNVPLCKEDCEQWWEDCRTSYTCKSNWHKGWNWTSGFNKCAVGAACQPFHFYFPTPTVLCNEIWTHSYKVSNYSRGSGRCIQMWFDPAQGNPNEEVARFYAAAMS
Description: FIGS. 2A-C depict graphs summarizing Binding of FoLR1 IgG binders to HeLa cells. Binding of newly generated FolR1 binders to FolR1 expressed on HeLa cells were determined by flow cytometry. Bound antibodies were detected with a fluorescently labeled anti-human secondary antibody.
The identified binders were converted into a human IgG1 format and binding to FolR1 high expressing HeLa cells was addressed. […] In a next step the selected clones were tested for specificity to human FolR1 by excluding binding to the closely related human FolR2. HEK cells were transiently transfected with either human FolR1 or human FolR2 to address specificity. […] In parallel cross-reactivity of the FolR1 clones to cyno FolR1 was addressed by performing binding studies to HEK cells transiently transfected with cyno FolR1. […] These FolR1 TCBs were then used to compare induction of internalization after binding to FolR1 on HeLa cells.

[2] = biological target: T1, recombinant human BCMA Fc(kih); assay: SPR Biacore, 1:1 Langmuir fit, as in Example 41
Description: The affinity of the interaction between anti-BCMA antibodies or BCMA-TCB CLC antibodies and recombinant human BCMA Fc(kih) was also determined. Anti-human Fab antibody (GE Healthcare) was directly coupled on a CM5 chip at pH 5.0 using the standard amine coupling kit (Biacore, Freiburg/Germany). The immobilization level was about 6500 RU. […] The dissociation was monitored for 120 or 400 seconds. Bulk refractive index differences were corrected for by subtracting the response obtained on reference flow cell. […] Kinetic constants were derived using the Biacore T200 Evaluation Software (v 1.0, Biacore AB, Uppsala/Sweden), to fit rate equations for 1:1 Langmuir binding by numerical integration (Table 41).
The anti-BCMA antibody comprising two heavy chains of 83A10 and two common light chains were produced using the general techniques for generation of bivalent IgG antibodies as described in the Material and general methods section.

[3] = biological target: T2, MUC1 SEA-avi-His, biotinylated; assay: SPR (ProteOn XPR36), biotinylated MUC1 on NLC chip, Fab as analyte, 1:1 Langmuir fit
Description: Immobilization of recombinant antigens (ligand): Antigens were diluted with PBST (10 mM phosphate, 150 mM sodium chloride pH 7.4, 0.005% Tween 20) to 10 μg/ml, then injected at 30 μl/minute at varying contact times, to achieve immobilization levels of about 200 response units (RU) in vertical orientation. […] Buffer (PBST) was injected along the sixth channel to provide an “in-line” blank for referencing. Association rate constants (kₒₙ) and dissociation rate constants (koff) were calculated using a simple one-to-one Langmuir binding model in ProteOn Manager v3.1 software by simultaneously fitting the association and dissociation sensorgrams. The equilibrium dissociation constant (KD) was calculated as the ratio koff/kₒₙ. Regeneration was performed in horizontal orientation using 10 mM Glycine, pH 1.5 at a flow rate of 100 ul/min for a contact time of 30 s.

[4] = biological target: T1, recombinant human BCMA Fc(kih); assay: SPR Biacore, binder captured via anti-Fab, BCMA-Fc analyte
[5] = biological target: T3, recombinant murine BCMA Fc(kih); assay: as above
[6] = biological target: T4, human BCMA on myeloma cells (H929, U266); assay: cell-based or functional assay

| Binder | EC50 (read off the curve) [1] [µg/mL] | Kd [3] [nM] | koff [3] [s⁻¹] | kon [3] [M⁻¹ s⁻¹] | other results |
| --- | --- | --- | --- | --- | --- |
| Mov19 IgG (antibody, V domains shown) VH: QVQLQQSGAELVKPGASVKISCKASGYSFTGYFMNWVKQSHGKSLEWIGRIHPYDGDTFYNQNFKDKATLTVDKSSNTAHMELLSLTSEDFAVYYCTRYDGSRAMDYWGQGTTVTVSS VL: DIELTQSPASLAVSLGQRAIISCKASQSVSFAGTSLMHWYHQKPGQQPKLLIYRASNLEAGVPTRFSGSGSKTDFTLNIHPVEEEDAATYYCQQSREYPYTFGGGTKLEIK | ~1 | – | – | – | – |
| 83A10-CLC anti-BCMA IgG (antibody, V domains shown, two heavy chains of 83A10 and two common light chains) VH: not shown VL: QAVVTQEPSLTVSPGGTVTLTCGSSTGAVTTSNYANWVQEKPGQAFRGLIGGTNKRAPGTPARFSGSLLGGKAALTLSGAQPEDEAEYYCALWYSNLWVFGGGTKLTVLG | – | – | – | – | Kd [2]: 24.3 nM; koff [2]: 0.00213 s⁻¹; kon [2]: 87800 M⁻¹ s⁻¹ |
| 19E5 IgG (antibody, V domains shown, human IgG1) VH: QVQLVQSGAEVKKPGASVKVSCKASGYTFTSYYMHWVRQAPGQGLEWMGIINPSGGSTSYAQKFQGRVTMTRDTSTSTVYMELSSLRSEDTAVYYCARGEWRRYTSFDYWGQGTLVTVSS VL: QAVVTQEPSLTVSPGGTVTLTCGSSTGAVTTSNYANWVQEKPGQAFRGLIGGTNKRAPGTPARFSGSLLGGKAALTLSGAQPEDEAEYYCALWYSNLWVFGGGTKLTVL | ~2 | – | – | – | – |
| 19A4 IgG (antibody, V domains shown, human IgG1) VH: QVQLVQSGAEVKKPGASVKVSCKASGYTFTSYYMHWVRQAPGQGLEWMGIINPSGGSTSYAQKFQGRVTMTRDTSTSTVYMELSSLRSEDTAVYYCARGGWIRWEHFDYWGQGTLVTVSS VL: QAVVTQEPSLTVSPGGTVTLTCGSSTGAVTTSNYANWVQEKPGQAFRGLIGGTNKRAPGTPARFSGSLLGGKAALTLSGAQPEDEAEYYCALWYSNLWVFGGGTKLTVL | ~3 | – | – | – | – |
| 106D2 Fab (Fab, V domains shown, bacterial Fab) VH: EVQLLESGGGLVQPGGSLRLSCAASGFTFRVYAMSWVRQAPGKGLEWVSGISETGSYTYYADSVKGRFTISRDNSKNTLYLQMNSLRAEDTAVYYCARYPYGFDYWGQGTLVTVSS VL: QAVVTQEPSLTVSPGGTVTLTCGSSTGAVTTSNYANWVQEKPGQAFRGLIGGTNKRAPGTPARFSGSLLGGKAALTLSGAQPEDEAEYYCALWYSNLWVFGGGTKLTVL | – | 30 | 0.000295 | 9800 | – |
| 58D6 Fab (Fab, V domains shown, bacterial Fab) VH: not shown VL: QAVVTQEPSLTVSPGGTVTLTCGSSTGAVTTSNYANWVQEKPGQAFRGLIGGTNKRAPGTPARFSGSLLGGKAALTLSGAQPEDEAEYYCALWYSNLWVFGGGTKLTVL | – | 23.5 | 0.000798 | 34000 | – |
| 20G6 IgG (antibody, V domains shown, human IgG1) VH: QVQLVQSGAEVKKPGASVKVSCKASGYTFTSYYMHWVRQAPGQGLEWMGIINPSGGSTSYAQKFQGRVTMTRDTSTSTVYMELSSLRSEDTAVYYCARGEWIRYYHFDYWGQGTLVTVSS VL: QAVVTQEPSLTVSPGGTVTLTCGSSTGAVTTSNYANWVQEKPGQAFRGLIGGTNKRAPGTPARFSGSLLGGKAALTLSGAQPEDEAEYYCALWYSNLWVFGGGTKLTVL | – | – | – | – | binding result [1]: binds |
| 110A5 Fab (Fab, V domains shown, bacterial Fab) VH: not shown VL: QAVVTQEPSLTVSPGGTVTLTCGSSTGAVTTSNYANWVQEKPGQAFRGLIGGTNKRAPGTPARFSGSLLGGKAALTLSGAQPEDEAEYYCALWYSNLWVFGGGTKLTVL | – | 134 | 0.00164 | 12200 | – |
| pSCHLI333-TCB CLC (bispecific antibody, also called pSCHLI333 BCMAxCD3 TCB) heavy 1: not shown heavy 2: QVQLVQSGAEVKKPGASVKVSCKASGYMFSSFGMSWVRQAPGQGLEWMGWIYPVGQGTWYAQKFQGRVTMTRDTSTSTVYMELSSLRSEDTAVYYCARVSYPPSHFDYWGQGTLVTVSSASTKGPSVFPLAPSSKSTSGGTAALGCLVKDYFPEPVTVSWNSGALTSGVHTFPAVLQSSGLYSLSSVVTVPSSSLGTQTYICNVNHKPSNTKVDKKVEPKSCDKTHTCPPCPAPEAAGGPSVFLFPPKPKDTLMISRTPEVTCVVVDVSHEDPEVKFNWYVDGVEVHNAKTKPREEQYNSTYRVVSVLTVLHQDWLNGKEYKCKVSNKALGAPIEKTISKAKGQPREPQVCTLPPSRDELTKNQVSLSCAVKGFYPSDIAVEWESNGQPENNYKTTPPVLDSDGSFFLVSKLTVDKSRWQQGNVFSCSVMHEALHNHYTQKSLSLSPGK light: QAVVTQEPSLTVSPGGTVTLTCGSSTGAVTTSNYANWVQEKPGQAFRGLIGGTNKRAPGTPARFSGSLLGGKAALTLSGAQPEDEAEYYCALWYSNLWVFGGGTKLTVLGQPKAAPSVTLFPPSSEELQANKATLVCLISDFYPGAVTVAWKADSSPVKAGVETTTPSKQSNNKYAASSYLSLTPEQWKSHRSYSCQVTHEGSTVEKTVAPTECS | – | – | – | – | Kd [4]: 164 nM; Kd [5]: 7190 nM; EC50 redirected T-cell killing, H929 [6]: 980 pM and 0.19 µg/ml |
| pSCHLI373-TCB CLC (bispecific antibody) heavy 1: not shown heavy 2: EVQLVESGGGLVKPGGSLRLSCAASGFSFSNSWMNWVRQAPGKGLEWVGTIRQKTYGGTTDYAAPVKGRFTISRDDSKNTLYLQMNSLKTEDTAVYYCTTGGLFGYWDYWGQGTLVTVSSASTKGPSVFPLAPSSKSTSGGTAALGCLVKDYFPEPVTVSWNSGALTSGVHTFPAVLQSSGLYSLSSVVTVPSSSLGTQTYICNVNHKPSNTKVDKKVEPKSCDKTHTCPPCPAPEAAGGPSVFLFPPKPKDTLMISRTPEVTCVVVDVSHEDPEVKFNWYVDGVEVHNAKTKPREEQYNSTYRVVSVLTVLHQDWLNGKEYKCKVSNKALGAPIEKTISKAKGQPREPQVCTLPPSRDELTKNQVSLSCAVKGFYPSDIAVEWESNGQPENNYKTTPPVLDSDGSFFLVSKLTVDKSRWQQGNVFSCSVMHEALHNHYTQKSLSLSPGK light: QAVVTQEPSLTVSPGGTVTLTCGSSTGAVTTSNYANWVQEKPGQAFRGLIGGTNKRAPGTPARFSGSLLGGKAALTLSGAQPEDEAEYYCALWYSNLWVFGGGTKLTVLGQPKAAPSVTLFPPSSEELQANKATLVCLISDFYPGAVTVAWKADSSPVKAGVETTTPSKQSNNKYAASSYLSLTPEQWKSHRSYSCQVTHEGSTVEKTVAPTECS | – | – | – | – | EC50 redirected T-cell killing, H929 [6]: 1590 pM and 0.31 µg/ml |
